Measurements taken from article doi:10.1101/2020.06.22.166033.

Target: biotinylated SARS-CoV-2 S2P probe (SARS-CoV-2-S2P-AVI) (SARS-CoV-2 | T4 phage) (UniProt P0DTC2)
Assay: SPR

## CR3022 Fab
  Kd: 91.4 nM
